Tested on: melanoma
Experiment: Treatment of patients with melanoma
Assay type: in vivo
Description: 100 patients are diagnosed with melanoma and subject to IL-12 recombinant protein injection at the tumor site. Patients receive either vehicle injections, 250 ng/kg/day of IL-12 or 500 ng/kg/day of IL-12 per treatment every three days for a week. […] By 5 years post-surgery, 40% of the patients who undergo IL-12 therapy have a relapse of […], and have 60% survival rate.
100 patients are diagnosed with melanoma and are administered genetically modified stem cells expressing IL-12 by intracavitary infusion. Tumor size is monitored by PET scan, and at the end of six months, the tumor size is reduced.

B1: IL-12: IL-12 recombinant protein injected at the tumor site (protein, listed as Homo sapiens)
chain 1: MCHQQLVISWFSLVFLASPLVAIWELKKDVYVVELDWYPDAPGEMVVLTCDTPEEDGITWTLDQSSEVLGSGKTLTIQVKEFGDAGQYTCHKGGEVLSHSLLLLHKKEDGIWSTDILKDQKEPKNKTFLRCEAKNYSGRFTCWWLTTISTDLTFSVKSSRGSSDPQGVTCGAATLSAERVRGDNKEYEYSVECQEDSACPAAEESLPIEVMVDAVHKLKYENYTSSFFIRDIIKPDPPKNLQLKPLKNSRQVEVSWEYPDTWSTPHSYFSLTFCVQVQGKSKREKKDRVFTDKTSATVICRKNASISVRAQDRYYSSSWSEWASVPCS
chain 2: MWPPGSASQPPPSPAAATGLHPAARPVSLQCRLSMCPARSLLLVATLVLLDHLSLARNLPVATPDPGMFPCLHHSQNLLRAVSNMLQKARQTLEFYPCTSEEIDHEDITKDKTSTVEACLPLELTKNESCLNSRETSFITNGSCLASRKTSFMMALCLSSIYEDLKMYQVEFKTMNAKLLMDPKRQIFLDQNMLAVIDELMQALNFNSETVPQKSSLEEPDFYKTKIKLCILLHAFRIRAVTIDRVMSYLNAS
tumor size by PET scan, higher dose (500 ng/kg/day versus 250 ng/kg/day or vehicle): greater reduction in tumor size than the lower dose or vehicle injected patients | tumor size by PET scan (IL-12 recombinant protein injection at the tumor site, 250 or 500 ng/kg/day every three days for a week, versus vehicle): reduced tumor size | patients with relapse (by 5 years): 40% | survival rate (by 5 years): 60% | T cell activation and immune cell infiltration in biopsies of injected lesions (versus vehicle injections): more T cell activation and immune cell infiltration
